Our source for the Kd and koff values is paper doi:10.1101/2022.05.21.492554.

In the experiment the target is ACE2-Fc (UniProt Q9BYF1). The experiment can be described thus: SPR. A general note: In SPR one partner is held on a chip, and binding of the other changes the refractive index at the surface.
Chain of ACE2-Fc (Q9BYF1 18-740): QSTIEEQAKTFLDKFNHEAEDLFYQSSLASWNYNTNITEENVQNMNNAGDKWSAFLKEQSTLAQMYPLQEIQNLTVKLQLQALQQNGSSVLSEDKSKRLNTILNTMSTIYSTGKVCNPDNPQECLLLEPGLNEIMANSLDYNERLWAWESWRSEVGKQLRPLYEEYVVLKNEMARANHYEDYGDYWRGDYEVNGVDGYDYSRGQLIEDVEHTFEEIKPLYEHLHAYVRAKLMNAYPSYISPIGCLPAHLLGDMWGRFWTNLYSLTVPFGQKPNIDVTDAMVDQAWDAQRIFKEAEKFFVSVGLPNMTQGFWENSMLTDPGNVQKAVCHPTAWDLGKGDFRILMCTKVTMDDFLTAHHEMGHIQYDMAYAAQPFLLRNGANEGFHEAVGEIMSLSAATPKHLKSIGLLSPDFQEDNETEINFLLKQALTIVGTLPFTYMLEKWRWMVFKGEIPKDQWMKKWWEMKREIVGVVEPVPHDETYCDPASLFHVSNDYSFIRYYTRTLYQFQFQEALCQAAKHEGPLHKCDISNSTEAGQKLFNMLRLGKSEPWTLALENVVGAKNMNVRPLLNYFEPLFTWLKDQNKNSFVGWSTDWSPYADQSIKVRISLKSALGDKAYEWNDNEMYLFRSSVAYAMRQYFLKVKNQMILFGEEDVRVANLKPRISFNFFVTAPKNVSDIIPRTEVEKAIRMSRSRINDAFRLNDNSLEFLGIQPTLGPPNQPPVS

Substance Wuhan RBD yielded a Kd of 7.3 nM and a dissociation rate constant (koff) of 0.0051 s⁻¹.

For orientation: Kd means a measure of binding affinity in units of concentration. Read a high Kd as weaker binding. One may read the koff as a measure of how fast the partners let go of each other. Read a high koff as a short-lived complex.
